Laboratory results published in patent US20260241018A1 (BIOCYTOGEN PHARMACEUTICALS BEIJING, published 2026).

T1: monkey (Macaca fascicularis) 5T4 expressed on CHO-S cells (CHO-fas5T4 cells) (monkey (Macaca fascicularis), UniProt Q4R8Y9 35-355)
T1 construct: also called monkey 5T4
T1 sequence: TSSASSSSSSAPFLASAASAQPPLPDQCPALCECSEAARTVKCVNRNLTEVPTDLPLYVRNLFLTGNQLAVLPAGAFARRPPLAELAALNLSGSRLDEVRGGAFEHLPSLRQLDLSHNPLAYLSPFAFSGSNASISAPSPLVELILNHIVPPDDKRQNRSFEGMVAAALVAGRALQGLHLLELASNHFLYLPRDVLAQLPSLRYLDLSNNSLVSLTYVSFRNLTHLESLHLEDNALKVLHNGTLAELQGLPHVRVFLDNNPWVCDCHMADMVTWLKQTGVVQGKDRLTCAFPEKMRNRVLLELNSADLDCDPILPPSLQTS

T2: h5T4-His protein (human, UniProt Q13641 32-355, limits assumed)
T2 construct: also called His-tagged human 5T4 protein; not shown: His tag
T2 sequence (looked up): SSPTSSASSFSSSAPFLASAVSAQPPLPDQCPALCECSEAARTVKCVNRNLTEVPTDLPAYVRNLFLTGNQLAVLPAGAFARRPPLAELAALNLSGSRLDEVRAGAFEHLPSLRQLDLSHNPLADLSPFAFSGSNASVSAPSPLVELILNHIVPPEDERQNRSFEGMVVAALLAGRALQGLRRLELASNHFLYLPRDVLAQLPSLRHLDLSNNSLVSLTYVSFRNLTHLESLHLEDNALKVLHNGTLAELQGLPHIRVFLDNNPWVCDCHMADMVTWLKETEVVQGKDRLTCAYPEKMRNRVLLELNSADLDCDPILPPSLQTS

T3: dog 5T4 expressed on CHO-S cells (CHO-d5T4 cells) (dog)
T3 chain: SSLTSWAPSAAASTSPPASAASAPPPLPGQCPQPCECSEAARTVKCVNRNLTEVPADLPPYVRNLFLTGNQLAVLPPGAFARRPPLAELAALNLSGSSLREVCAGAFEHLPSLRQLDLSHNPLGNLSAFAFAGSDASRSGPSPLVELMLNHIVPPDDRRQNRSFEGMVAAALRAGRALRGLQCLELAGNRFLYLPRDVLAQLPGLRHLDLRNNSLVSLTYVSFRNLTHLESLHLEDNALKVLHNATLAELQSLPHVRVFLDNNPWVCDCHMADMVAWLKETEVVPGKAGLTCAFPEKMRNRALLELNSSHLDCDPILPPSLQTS

T4: His-tagged 5T4 protein of monkey (fas5T4, ACRO Biosystems Inc., Cat #: TPG-C52H3) (monkey, UniProt Q4R8Y9 35-355)
T4 construct: Bought protein
T4 sequence: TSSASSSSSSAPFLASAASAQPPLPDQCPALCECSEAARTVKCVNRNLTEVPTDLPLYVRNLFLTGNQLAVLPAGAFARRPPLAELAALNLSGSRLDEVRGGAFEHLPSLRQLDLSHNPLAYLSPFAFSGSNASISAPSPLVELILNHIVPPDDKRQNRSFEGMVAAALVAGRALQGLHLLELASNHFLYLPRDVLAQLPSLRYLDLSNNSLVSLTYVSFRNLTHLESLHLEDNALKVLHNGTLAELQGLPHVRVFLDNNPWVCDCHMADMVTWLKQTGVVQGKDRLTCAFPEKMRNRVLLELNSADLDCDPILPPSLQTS

T5: His-tagged 5T4 protein of human (h5T4, ACRO Biosystems Inc., Cat #: TPG-H52E5) (human, UniProt Q13641 32-355)
T5 construct: Bought protein; not shown: His tag
T5 sequence (looked up): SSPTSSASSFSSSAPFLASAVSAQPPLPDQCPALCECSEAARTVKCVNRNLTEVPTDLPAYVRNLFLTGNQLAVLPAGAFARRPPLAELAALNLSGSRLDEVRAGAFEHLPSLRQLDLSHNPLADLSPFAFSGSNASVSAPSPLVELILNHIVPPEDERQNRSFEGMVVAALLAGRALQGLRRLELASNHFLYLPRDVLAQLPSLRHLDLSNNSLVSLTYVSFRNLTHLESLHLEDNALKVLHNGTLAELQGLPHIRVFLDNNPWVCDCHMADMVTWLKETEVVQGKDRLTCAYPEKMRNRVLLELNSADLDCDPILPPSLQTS

T6: human 5T4 expressed on CHO-S cells (CHO-h5T4 cells) (human, UniProt Q13641 32-355)
T6 sequence: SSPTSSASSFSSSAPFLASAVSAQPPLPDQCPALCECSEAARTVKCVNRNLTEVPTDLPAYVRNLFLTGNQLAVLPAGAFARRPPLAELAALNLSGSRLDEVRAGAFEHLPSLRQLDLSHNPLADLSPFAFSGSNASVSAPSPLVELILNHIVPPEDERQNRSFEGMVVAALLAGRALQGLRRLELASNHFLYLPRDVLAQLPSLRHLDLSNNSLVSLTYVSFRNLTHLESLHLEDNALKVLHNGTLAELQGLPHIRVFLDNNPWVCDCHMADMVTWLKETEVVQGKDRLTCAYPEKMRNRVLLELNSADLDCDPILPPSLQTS

T7: mouse 5T4 expressed on CHO-S cells (CHO-m5T4 cells) (mouse, UniProt Q9Z0L0 32-361)
T7 sequence: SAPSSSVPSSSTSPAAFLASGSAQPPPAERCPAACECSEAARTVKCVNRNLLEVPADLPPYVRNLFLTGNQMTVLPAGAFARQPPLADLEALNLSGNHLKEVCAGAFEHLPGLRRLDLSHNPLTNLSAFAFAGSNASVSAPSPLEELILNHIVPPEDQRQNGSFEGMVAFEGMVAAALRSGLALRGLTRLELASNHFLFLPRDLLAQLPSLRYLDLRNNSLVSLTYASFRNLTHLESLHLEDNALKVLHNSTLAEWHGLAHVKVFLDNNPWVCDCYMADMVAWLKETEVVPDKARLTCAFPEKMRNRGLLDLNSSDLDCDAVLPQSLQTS

T8: His-tagged 5T4 protein of mouse (m5T4, ACRO Biosystems Inc., Cat #: TPG-M52H3) (mouse, UniProt Q9Z0L0 32-361, limits assumed)
T8 construct: Bought protein; not shown: His tag
T8 sequence (looked up): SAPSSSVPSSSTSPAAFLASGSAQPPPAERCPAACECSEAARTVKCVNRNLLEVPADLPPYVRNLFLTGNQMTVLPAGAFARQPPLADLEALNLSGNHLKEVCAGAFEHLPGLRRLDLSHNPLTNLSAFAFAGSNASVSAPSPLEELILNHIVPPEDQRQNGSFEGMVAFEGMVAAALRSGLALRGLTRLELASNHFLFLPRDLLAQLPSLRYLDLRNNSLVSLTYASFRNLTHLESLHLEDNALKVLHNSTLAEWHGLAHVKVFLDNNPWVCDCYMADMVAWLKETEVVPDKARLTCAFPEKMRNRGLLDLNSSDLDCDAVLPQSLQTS


Legend:
[1] = target: T1, monkey (Macaca fascicularis) 5T4 …; assay: flow cytometry, CHO-fas5T4 cells
Experimental: (§1) CHO-h5T4 cells, CHO-m5T4 cells, CHO-fas5T4 cells or CHO-d5T4 cells were transferred to a 96-well plate at a density of 2×10⁵ cells/well respectively. The anti-5T4 antibodies were added to the 96-well plate, and incubated at 4° C. for 30 min. Then, the cells were incubated with the secondary antibody anti-hlgG-Fc-Alex Flour 647 (RL1-H) (Jackson ImmunoResearch Laboratories, Inc., Cat #: 109-606-170) at 4° C. in the dark for 15 minutes before flow cytometry analysis.

[2] = target: T2, h5T4-His protein; assay: epitope binding assay, h5T4-His captured; binder = analyte 2; competitor (analyte 1): 32G1
Experimental: (§2) Epitope binding assays were performed using ForteBio Octet system to determine whether two anti-5T4 antibodies target the same or overlapping epitopes. 1×HBS-EP+buffer (10 mM 4-(2-hydroxyethyl)-1-piperazineethanesulfonic acid (HEPES), 150 mM NaCl, 3 mM ethylenediaminetetraacetic acid (EDTA) and 0.05% P20, pH7.4) diluted from HBS-EP+buffer (10×) was used as the running buffer throughout the experiment. About 50 RU of h5T4-His protein was captured at a flow rate of 10 μL/min, and 200 nM of the tested antibody was injected at a flow rate of 30 μL/min to bind the ligand. Another comparison antibody was injected under the same conditions to determine whether the binding of different antibodies interfered with each other. The binding time was 180 s for each antibody.
(§3) The binding value of each antibody was obtained using Data Analysis HT 12.0. To quantify the interference of one antibody binding to another, a binding ratio was calculated to compare each pair of antibodies. The binding ratio is defined as the binding value of the second antibody (analyte 2), divided by the binding value of the first antibody (analyte 1). […] In general, antibody pairs that interfere with each other have the same or overlapping epitopes.

[3] = target: T2, h5T4-His protein; assay: epitope binding assay, h5T4-His captured; binder = analyte 2; competitor (analyte 1): 31G4
Experimental: as §2, §3

[4] = target: T2, h5T4-His protein; assay: epitope binding assay, h5T4-His captured; binder = analyte 2; competitor (analyte 1): 32E3
Experimental: as §2, §3

[5] = target: T3, dog 5T4 expressed on CHO-S cells …; assay: flow cytometry, CHO-d5T4 cells
Experimental: as §1

[6] = target: T4, His-tagged 5T4 protein of monkey …; assay: SPR (Biacore 8K), antibody captured on Protein A chip, His-tagged 5T4 as analyte
Experimental: (§4) Purified anti-5T4 antibodies were diluted to 2 μg/mL and then injected into the Biacore™ 8K biosensor at 10 μL/min for about 50 seconds to achieve a desired protein density (e.g., about 50 response units (RU)). His-tagged 5T4 protein at a concentration of 200 nM was then injected at 30 μL/min for 180 seconds. Dissociation was monitored for 400 seconds. The chip was regenerated after the last injection of each titration with Glycine (pH 2.0), 30 μL/min for 30 seconds. For ISO control, an antibody targeting an irrelevant target protein was used.
(§5) As a person of ordinary skill in the art would understand, the same method with appropriate adjustments for parameters (e.g., antibody concentration) was performed for each tested antibody.

[7] = target: T5, His-tagged 5T4 protein of human (h5T4, …); assay: as above
Experimental: as §4, §5

[8] = target: T6, human 5T4 expressed on CHO-S cells …; assay: flow cytometry, CHO-h5T4 cells
Experimental: as §1

[9] = target: T7, mouse 5T4 expressed on CHO-S cells …; assay: flow cytometry, CHO-m5T4 cells
Experimental: as §1

[10] = target: T2, h5T4-His protein; assay: epitope binding assay, h5T4-His captured; binder = analyte 2; competitor (analyte 1): 35B12
Experimental: as §2, §3

[11] = target: T2, h5T4-His protein; assay: epitope binding assay, h5T4-His captured; binder = analyte 2; competitor (analyte 1): 35C6
Experimental: as §2, §3

[12] = target: T2, h5T4-His protein; assay: epitope binding assay, h5T4-His captured; binder = analyte 2; competitor (analyte 1): 32G8
Experimental: as §2, §3

[13] = target: T8, His-tagged 5T4 protein of mouse (m5T4, …); assay: SPR (Biacore 8K), antibody captured on Protein A chip, His-tagged 5T4 as analyte
Experimental: as §4, §5

Row | Binder | Percentage of Positive Cells [1] [%] | binding ratio [2] | binding ratio [3] | binding ratio [4] | Percentage of Positive Cells [5] [%] | Kd [6] [nM] | koff [6] [s⁻¹] | kon [6] [M⁻¹ s⁻¹] | Kd [7] [nM] | koff [7] [s⁻¹] | kon [7] [M⁻¹ s⁻¹] | Percentage of Positive Cells [8] [%] | Percentage of Positive Cells [9] [%] | binding ratio [10] | binding ratio [11] | binding ratio [12] | binding result [13] | binding result [9]
1 | 32E3 (antibody, V domains shown, also called anti-5T4 antibody 32E3) VH: QVQLVQSGGGLVQPGGSLRLSCVVSGFTVSSDYMSWVRQAPGKGLEWVSIIYSGGSTFYADSVKGRFTISRDNSKNTLFLQMNSLRAEDTAVYYCARDRDCHGWGSYYNRWFDPWGQGTLVTVSS VL: not shown | 51.5 | 0.83 | 0.8 | -0.01 | 53.7 | 116 | 0.00297 | 25600 | 147 | 0.00661 | 44900 | 65.8 | 52.2 | 0.97 | 0.96 | -0.06 |  | 
2 | 32G8 (antibody, V domains shown, also called anti-5T4 antibody 32G8) VH: QVQLQESGPGLLQPSETLSLTCFVSGASINSSGHYWGWIRQPPGKGLEWIGSIYFSGNTNYNPSLKSRVTIAVDTSKNQFSLKLSSVTAADTAVYYCVRRNGRYCSTISCYDDYWGQGTLVTVSS VL: not shown | 52.6 | 1.01 | 0.85 | 0.04 | 62.8 | 146 | 0.0143 | 98000 | 42.7 | 0.00529 | 124000 | 61.5 | 0.7 | 0.96 | 1.01 | 0.11 | no binding (tested: 200 nM) | no binding
3 | MAB2 analog-SI (antibody, V domains shown, MAB2 is a humanized IgG1 monoclonal antibody targeting 5T4) VH: QVQLQQPGAELVKPGASVKMSCKASGYTFTSYWITWVKQRPGQGLEWIGDIYPGSGRANYNEKFKSKATLTVDTSSSTAYMQLSSLTSEDSAVYNCARYGPLFTTVVDPNSYAMDYWGQGTSVTVSS VL: DVLMTQTPLSLPVSLGDQASISCRSSQSIVYSNGNTYLEWYLQKPGQSPKLLIYKVSNRFSGVPDRFSGSGSGTDFTLKISRVEAEDLGVYYCFQGSHVPFTFGSGTKLEIK |  |  |  |  |  | 55.1 | 0.00545 | 99000 | 22.5 | 0.00292 | 130000 |  |  |  |  |  | no binding (tested: 200 nM) | 
